The target of test [1] is T1, 8-histidine tagged recombinant wild-type protein EGFRwt (UniProt P00533 25-645, limits assumed).
T1 construct: not shown: 8-histidine tag
Kind of test: SPR, captured by anti-mouse Fc.

Test [2] addresses T2, Monomeric 8-histidine tagged human EGFRvIII extracellular domain (human, UniProt P00533 298-645).
T2 construct: Analyte in all SPR assays; not shown: 8-histidine tag
Briefly: SPR, captured by anti-mouse Fc, 37 C. From the text:
To generate human antibodies against EGFRvIII, transgenic AlivaMab mice (Ablexis LLC, San Francisco, Calif.) were immunized with alternating schedule of paraformaldehyde-fixed rat glioblastoma cell line expressing EGFRvIII, F98-npEGFRvIII (American Type Culture Collection, Manassas, Va.) and peptides (SEQ ID NO: 227: […]) directed to the junction region in EGFRvIII. Hybridomas were generated using standard techniques. To determine the binding affinity and specificity of these hybridomas to EGFRvIII, antibodies in culture supernatants were captured by anti-mouse Fc using Biacore™ T200 biosensor equipped with anti-mouse Fc coupled CM4 sensor chips (Biacore™ AB, Uppsala, Sweden—now GE Healthcare). Monomeric 8-histidine tagged human EGFRvIII extracellular domain was then injected as the analyte at 10-fold dilution series starting with top concentration 1000 nM. Affinity of anti-EGFRvIII antibodies towards human EGFRvIII was measured at 37° C.

The target of test [3] is T3, human EGFRvIII expressed on cells (human, UniProt P00533 298-1210).
T3 construct: the F98-npEGFRvIII line was obtained from ATCC and its construct is not described; also called F98-npEGFRvIII; F98-EGFRvIII
Briefly: flow cytometry, F98-npEGFRvIII cells.

Test [4] has as its target T3, human EGFRvIII expressed on cells. Kind of test: flow cytometry, F98-npEGFRvIII against F98, F98-EGFRwt and A431 cells.

B1: 42G9 (antibody, V domains shown)
VH: QVTLKESGPVLLKPTETLTLTCTVSGFSLSNPRMGVSWIRQPPGKALEWFAHIFSTDEKSLKLSLRSRLTLSKDTSKSQVVLTMTNMAPVDSATYYCARDSSNYEGYFDFWGQGTLVTVSS
VL: EVVLTQSPATLSVSPGERATLSCRASQSVRSNLAWYQQKSGQAPRLLIYGSTIRATGVPARFSGSGSGTEFTLTISSLQSEDFAVYYCQQYSDWPFTFGPGTKVDIK
notes: Hybridoma supernatant (AlivaMab mouse); captured/detected via mouse Fc; also called mAb 42G9
For the molecule B1, in test [1], the binding result was “no binding (tested: 1000 nM)”. In test [2], this molecule yielded a Kd of 8.2 nM, a koff of 0.000563 s⁻¹ and an association rate constant (kon) of 68800 M⁻¹ s⁻¹. In test [3], the “% positive” value is 98.5% and the MFI amounted to 3250. Also, the “fold MFI on EGFRvIII expressing cell line over non-expressing cell lines” value (from here on “fold MFI … over non-expressing cell lines”) in test [4] was no less than 10 fold.

B2: 12H6 (antibody, V domains shown)
VH: QVTLKESGPVLVKPTETLTLTCTVSGFSLSNARMGVSWIRQPPGKALEWLAHIFSTDEKSIRRSLRSRLTLSKDTSKSQVVLTMTNMDPVDTATYYCARDSSNYEGYFDYWGQGTLVTVSS
VL: EVVMTQSPATLSVSPGERATLSCRASQGVSSNFAWYQQRPGQSPRLLLYGASTRATGVPGRFSGSGSGTENILTISSLQSEDFAIYFCQQYKDWPFTFGPGSKVDIK
notes: Hybridoma supernatant (AlivaMab mouse); captured/detected via mouse Fc
B2: in test [1], the binding result is recorded as “no binding (tested: 1000 nM)”. In addition, in test [2], the Kd is 12.4 nM, the koff amounted to 0.000733 s⁻¹ and the kon amounted to 59300 M⁻¹ s⁻¹. In test [3], the “% positive” value was 98.3% and the MFI came to 3440. For the same molecule, the “fold MFI … over non-expressing cell lines” value in test [4] was no less than 10 fold.

B3: 11B11 (antibody, V domains shown)
VH: QVTLKESGPVLVKPTETLTLTCTVSGFSLSNAKMGVSWIRQPPGKALEWLAHIFSTDEKSIRRSLRSRLTMSKDTSKSQVVLTMTNMDPVDTATYYCVRDSSNYEGYFDYWGQGTLVTVSS
VL: EVLMTQSPATLSVSPGERATLSCRASQSVSTNFAWYQQRPGQAPRLLLFGASTRATGIPGRFSGSGSGTENILTISSLQSEDFAIYFCQQYKDWPFTFGPGSKVEIK
notes: as for B2
As to B3, the binding result in test [1] is “no binding (tested: 1000 nM)”. In test [2], this molecule came in with a Kd of 21.7 nM, a koff of 0.00113 s⁻¹ and a kon of 52100 M⁻¹ s⁻¹. For the same molecule, in test [3], the “% positive” value turned out to be 98.2% and the MFI turned out to be 3390. For the same molecule, the “fold MFI … over non-expressing cell lines” value in test [4] is no less than 10 fold.

B4: 46E10 (antibody, V domains shown)
VH: QVTLKESGPVLVKPTETLTLTCTVSGFSLSNARMGVSWIRQPPGKALEWLAHIFSTDEKSIRRSLRSRLTLSKDTSKSQVVLIMTNMDPVDTATYYCARDSSNYEGYFDYWGQGTLVTVSS
VL: EVVMTQSPPNLSVSPGERATLSCRASQSVTSNFAWYQQRPGQSPRLLLYGASTRATGVPGRFSGSGSGTENILTISSLQSEDFAVYFCQQYKDWPFTFGPGSKVDIK
notes: as for B2
Consider B4, for which, in test [1], the binding result is “no binding (tested: 1000 nM)”. In test [2], this molecule came in with a Kd of 12 nM, a koff of 0.000716 s⁻¹ and a kon of 59700 M⁻¹ s⁻¹. Moreover, in test [3], the “% positive” value amounted to 98.7% and the MFI is 2990. For the same molecule, the “fold MFI … over non-expressing cell lines” value in test [4] is no less than 10 fold.

B5: 32A10 (antibody, V domains shown)
VH: QVTLKESGPVLVKPTETLTLTCTVSGFSLSNARMGVSWIRQPPGKALEWLAHIFSTDEKSIRRSLRSRLTLSKDTSKSQVVLTMTNMDPVDTATYFCARDSSNYEGYFDYWGQGTLVTVSS
VL: EVVMTQSPATLSVSPGERVTLSCRASQSVSSNFAWYQQRPGQAPRLLLYGATTRATGLPGRFSGSGSGTENILTISSLQSEDFAIYFCQQYKDWPFTFGPGSKVDIK
notes: as for B2
For the molecule B5, the binding result in test [1] is given as “no binding (tested: 1000 nM)”. For the same molecule, in test [2], the Kd was 9.6 nM, the koff was determined as 0.000626 s⁻¹ and the kon is 65400 M⁻¹ s⁻¹. In test [3], the “% positive” value worked out at 98.3% and the MFI was 3350. Moreover, the “fold MFI … over non-expressing cell lines” value in test [4] was no less than 10 fold.

The record behind these values is patent US20190144550A1 (Pfizer, published 2019).
